{
  "source": "paper PMC10130511",
  "origin": "cited, not measured here",
  "key": {"IP3R [1]": {"molecular_target": "IP3R (UniProt P29994)", "sequence (P29994 whole entry)": "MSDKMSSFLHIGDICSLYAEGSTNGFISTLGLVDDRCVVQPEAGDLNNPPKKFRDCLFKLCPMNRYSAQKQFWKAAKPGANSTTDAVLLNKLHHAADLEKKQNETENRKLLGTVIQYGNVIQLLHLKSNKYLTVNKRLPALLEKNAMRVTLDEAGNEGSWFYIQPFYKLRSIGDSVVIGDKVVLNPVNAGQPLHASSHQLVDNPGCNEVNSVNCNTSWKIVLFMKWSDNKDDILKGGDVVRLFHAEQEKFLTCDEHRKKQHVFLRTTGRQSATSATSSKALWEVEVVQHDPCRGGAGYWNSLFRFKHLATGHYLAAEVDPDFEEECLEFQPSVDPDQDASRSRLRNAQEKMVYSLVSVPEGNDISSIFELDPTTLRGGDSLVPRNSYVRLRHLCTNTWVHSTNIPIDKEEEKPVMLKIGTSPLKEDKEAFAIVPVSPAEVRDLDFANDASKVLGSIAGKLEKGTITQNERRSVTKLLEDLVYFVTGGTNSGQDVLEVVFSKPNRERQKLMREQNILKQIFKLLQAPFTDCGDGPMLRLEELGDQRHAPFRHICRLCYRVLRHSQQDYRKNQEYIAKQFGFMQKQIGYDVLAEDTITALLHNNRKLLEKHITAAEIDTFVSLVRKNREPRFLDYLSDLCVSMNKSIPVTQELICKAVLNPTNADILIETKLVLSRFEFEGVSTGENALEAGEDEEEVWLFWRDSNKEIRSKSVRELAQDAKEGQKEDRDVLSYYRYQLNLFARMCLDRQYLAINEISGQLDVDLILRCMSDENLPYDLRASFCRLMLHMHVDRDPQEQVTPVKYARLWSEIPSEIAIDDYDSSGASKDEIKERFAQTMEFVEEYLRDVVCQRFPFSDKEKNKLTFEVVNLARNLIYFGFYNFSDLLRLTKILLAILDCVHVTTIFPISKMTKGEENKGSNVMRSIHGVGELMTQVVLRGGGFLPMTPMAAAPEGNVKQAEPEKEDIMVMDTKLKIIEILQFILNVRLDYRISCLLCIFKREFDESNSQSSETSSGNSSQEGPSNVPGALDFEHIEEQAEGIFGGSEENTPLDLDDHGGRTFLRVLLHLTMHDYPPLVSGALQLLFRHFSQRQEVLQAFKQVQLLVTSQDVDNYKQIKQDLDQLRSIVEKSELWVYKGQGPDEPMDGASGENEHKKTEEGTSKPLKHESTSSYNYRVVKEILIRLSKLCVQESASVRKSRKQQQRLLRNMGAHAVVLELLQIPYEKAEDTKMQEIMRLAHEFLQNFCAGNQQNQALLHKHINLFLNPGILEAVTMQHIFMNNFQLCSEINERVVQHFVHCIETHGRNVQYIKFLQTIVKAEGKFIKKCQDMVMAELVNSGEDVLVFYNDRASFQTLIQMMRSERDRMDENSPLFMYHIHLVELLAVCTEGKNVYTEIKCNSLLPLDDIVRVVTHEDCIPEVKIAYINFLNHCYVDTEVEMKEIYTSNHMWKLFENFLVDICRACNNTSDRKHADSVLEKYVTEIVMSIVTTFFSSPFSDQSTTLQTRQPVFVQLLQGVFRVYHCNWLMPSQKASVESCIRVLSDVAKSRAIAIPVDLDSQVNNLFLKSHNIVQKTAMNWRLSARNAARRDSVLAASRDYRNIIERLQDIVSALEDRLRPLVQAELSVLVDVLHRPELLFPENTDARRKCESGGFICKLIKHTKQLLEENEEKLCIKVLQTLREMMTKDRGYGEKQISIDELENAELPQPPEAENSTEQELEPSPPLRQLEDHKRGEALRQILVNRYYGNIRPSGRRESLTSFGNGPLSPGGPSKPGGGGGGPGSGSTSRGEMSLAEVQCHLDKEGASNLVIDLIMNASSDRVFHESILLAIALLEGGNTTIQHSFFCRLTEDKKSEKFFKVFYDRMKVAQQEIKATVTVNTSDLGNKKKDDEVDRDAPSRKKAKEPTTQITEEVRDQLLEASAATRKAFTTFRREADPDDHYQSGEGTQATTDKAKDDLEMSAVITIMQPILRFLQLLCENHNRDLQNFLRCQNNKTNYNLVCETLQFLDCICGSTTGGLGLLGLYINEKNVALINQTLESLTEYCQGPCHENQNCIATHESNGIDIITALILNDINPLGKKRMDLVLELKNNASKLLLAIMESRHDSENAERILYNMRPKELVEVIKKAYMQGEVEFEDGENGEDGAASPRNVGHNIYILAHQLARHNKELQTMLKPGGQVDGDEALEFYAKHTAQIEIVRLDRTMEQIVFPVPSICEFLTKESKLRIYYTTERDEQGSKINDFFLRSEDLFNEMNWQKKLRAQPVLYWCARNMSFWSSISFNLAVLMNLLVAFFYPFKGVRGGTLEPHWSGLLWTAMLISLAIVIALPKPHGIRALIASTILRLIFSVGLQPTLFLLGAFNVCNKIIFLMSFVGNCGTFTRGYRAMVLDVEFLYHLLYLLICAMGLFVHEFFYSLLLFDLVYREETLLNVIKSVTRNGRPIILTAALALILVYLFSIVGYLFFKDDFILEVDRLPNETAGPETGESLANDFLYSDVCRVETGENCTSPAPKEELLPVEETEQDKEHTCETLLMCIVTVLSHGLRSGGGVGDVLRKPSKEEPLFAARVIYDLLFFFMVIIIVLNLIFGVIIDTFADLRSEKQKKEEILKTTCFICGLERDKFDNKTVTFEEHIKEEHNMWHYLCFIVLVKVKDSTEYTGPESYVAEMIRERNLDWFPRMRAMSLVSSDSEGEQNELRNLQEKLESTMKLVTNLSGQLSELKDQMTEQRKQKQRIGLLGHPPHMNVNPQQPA"}, "IP3R [2]": {"molecular_target": "IP3R (UniProt P29994)", "remark": "listed apart in the source"}, "IP3R [3]": {"molecular_target": "IP3R (UniProt P29994)", "remark": "listed apart in the source"}},
  "note": "Like-named read-outs stand apart in the source and are kept apart here.",
  "data": [
    {"substance": "Bcl-2 (from UniProt P10415)", "values": [
      {"measurement": "Kd", "setting": "IP3R [1]", "value": 1000, "unit": "nM"}
    ]},
    {"substance": "Bcl-xL (from UniProt Q07817)", "values": [
      {"measurement": "Kd", "setting": "IP3R [2]", "value": 700, "unit": "nM"}
    ]},
    {"substance": "Bok (from UniProt Q9UMX3)", "values": [
      {"measurement": "Kd", "setting": "IP3R [3]", "value": 65, "unit": "nM"}
    ]}
  ]
}
